Test results as given in patent publication US20220348617A1.

How the values were obtained:
[1] = target: Notch 3 EGF domains 5-12 (human) (UniProt Q9UM47); test: SPR; details: ligand
[2] = target: Notch1 EGF domains 6-13 (human) (UniProt P46531); test: SPR; details: ligand
[3] = target: Notch2 EGF domains 6-13 (human) (UniProt Q04721); test: SPR; details: ligand
[4] = target: Notch 3 EGF domains 5-12 (human) (UniProt Q9UM47); test: SPR; N-EGF3; details: ligand
[5] = target: Notch1 EGF domains 6-13 (human) (UniProt P46531); test: SPR; N-EGF3; details: ligand
[6] = target: Notch2 EGF domains 6-13 (human) (UniProt Q04721); test: SPR; N-EGF3; details: ligand
[7] = target: Notch1 on the fluorescent Notch1 reporter cell line (CHO^N1); test: cell-based or functional assay

Notch1 EGF domains 6-13 (human), sequence (P46531 218-526): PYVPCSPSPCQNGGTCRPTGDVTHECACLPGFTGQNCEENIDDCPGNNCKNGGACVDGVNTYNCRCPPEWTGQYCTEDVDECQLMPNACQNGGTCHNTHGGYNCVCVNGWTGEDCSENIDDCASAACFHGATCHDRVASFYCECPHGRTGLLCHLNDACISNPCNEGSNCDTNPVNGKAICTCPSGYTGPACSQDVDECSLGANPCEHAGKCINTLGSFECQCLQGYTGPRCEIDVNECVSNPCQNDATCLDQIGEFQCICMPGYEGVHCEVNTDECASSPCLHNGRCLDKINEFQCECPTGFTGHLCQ
Notch2 EGF domains 6-13 (human), sequence (Q04721 221-530): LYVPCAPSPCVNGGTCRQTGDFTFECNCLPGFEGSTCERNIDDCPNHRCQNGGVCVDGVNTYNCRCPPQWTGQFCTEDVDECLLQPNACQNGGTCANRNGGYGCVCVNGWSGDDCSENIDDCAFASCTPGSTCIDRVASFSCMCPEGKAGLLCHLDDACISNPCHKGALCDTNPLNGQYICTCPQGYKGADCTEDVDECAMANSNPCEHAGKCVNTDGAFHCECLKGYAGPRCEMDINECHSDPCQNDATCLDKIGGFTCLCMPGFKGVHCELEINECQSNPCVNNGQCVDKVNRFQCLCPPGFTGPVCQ
Notch 3 EGF domains 5-12 (human), sequence (Q9UM47 197-505): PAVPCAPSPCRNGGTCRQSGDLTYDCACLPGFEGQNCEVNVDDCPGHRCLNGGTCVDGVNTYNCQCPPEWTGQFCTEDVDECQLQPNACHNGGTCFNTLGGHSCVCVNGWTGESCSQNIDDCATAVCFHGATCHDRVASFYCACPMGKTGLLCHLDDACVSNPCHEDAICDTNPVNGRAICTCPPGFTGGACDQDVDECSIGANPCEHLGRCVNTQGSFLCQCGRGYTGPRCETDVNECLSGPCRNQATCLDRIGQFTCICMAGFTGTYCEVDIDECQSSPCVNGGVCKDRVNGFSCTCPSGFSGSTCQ

Substance	Kd [1] [nM]	Kd [2] [nM]	Kd [3] [nM]	Kd [4] [nM]	Kd [5] [nM]	Kd [6] [nM]	Notch1 activation (fluorescent Notch1 reporter cells, co-culture) [7] [%]
E12 human DLL4 (from UniProt Q9NR61 27-322)	470	450	750	122	103	244	–
N3a.5_E12 human DLL4 (from UniProt Q9NR61 27-322)	4.7	2	7.4	–	–	–	–
N3a.8_E12 human DLL4 (from UniProt Q9NR61 27-322)	7.2	4.2	15.3	–	–	–	–
wild-type human DLL4 expressed on 293T cells (from UniProt Q9NR61 27-685) (ligand)	–	–	–	–	–	–	100
